In the supplement of paper PMC10567573:

B1: HESX1 (parent)
chain: HVPNPPSGISFPSVVDHPMPEERA
B2: WEE1 (parent)
chain: INPFTPDSLLLHSSGQCRRRKRTY

Variants of: B1
Experiment: protein stability index of a GFP-peptide fusion (GPS, HEK-293T) (PSI 1-6); higher = more stable
Settings: c terminus: a fixed tail appended
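Note: lentivirally expressed fusions sorted by FACS into six bins by GFP to DsRed ratio, PSI derived from sequencing read proportions per bin multiplied by bin number.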

Protein stability index: each site, then its substitutions
P18: Y 2.48; D 2.78; Q 2.61; A 2.61; H 2.49; R 2.79; C 2.25; T 2.51; I 2.36; G 2.43; M 2.49; E 2.85; K 2.7; F 2.42; L 2.56; N 2.62; V 2.64; W 2.28; S 2.61
M19: Q 3.17; N 2.97; F 2.65; C 2.37; E 3.69; Y 2.27; K 3.31; S 3.18; T 2.59; V 2.44; W 2.29; H 3.03; G 2.44; L 2.39; A 2.99; R 2.83; D 2.94; I 2.59
A24: H 2.65; Q 2.38; L 2.32; V 2.98; G 2.33; W 1.91; E 2.95; M 2.77; F 2.3; T 2.87; P 2.98; N 2.74; R 2.87; C 2.09; I 2.36; D 2.77; S 2.5; Y 2.13; K 2.63
V15: Y 3.03; M 3.49; C 2.04; F 3.28; R 3.11; I 3.16; L 3.61; H 3.23; D 4.55; Q 3.63; G 3.85; N 3.22; E 3.93; W 2.17; P 3.06; K 3.2; A 2.65; T 3.13; S 2.99
E21: I 1.95; D 2.85; L 1.97; Y 2.43; P 2.06; T 2.52; G 2.08; C 2.71; F 1.96; H 2.45; Q 2.33; K 1.89; S 2.56; N 2.37; M 1.86; R 2.52; W 2; V 2.48; A 2.49
R23: N 2.73; F 2.11; Q 2.21; V 2.49; W 2.37; D 3; G 3.19; P 2.76; S 2.36; K 2.77; M 2.38; I 2.58; A 2.53; L 2.1; T 2.6; Y 2.34; C 2.56; E 2.76; H 2.99
D16: N 2; E 2.73; H 2.81; Q 2.51; F 1.9; V 2.35; C 2.4; R 2.51; M 2.19; Y 2.57; T 2.03; L 2.36; P 2.37; A 2.72; S 2.22; I 1.92; W 1.57; G 2.18; K 2.21
S13: D 3.94; H 2.33; P 2.73; T 2.45; Q 2.71; K 1.71; C 2.45; E 3.65; A 2.55; L 2.09; Y 1.94; I 2.58; F 1.89; G 2.81; M 2.08; R 2.59; N 3.04; V 2.43; W 2.14
S10: W 1.97; Y 2.18; Q 2.42; C 2.19; G 2.25; D 3.77; A 2.79; H 2.81; E 3.39; T 2.97; M 2.56; P 2.29; K 2.38; I 2.59; F 2.61; L 2.38; V 2.58; N 3.5; R 2.03
E22: L 1.94; R 2.26; N 2.02; T 2.33; H 2.29; M 2.15; K 1.83; D 2.76; Q 2.77; G 2.08; Y 2.68; W 2.37; S 2.3; V 2.16; A 2.72; C 2.15; P 2.17; I 2.75; F 1.9
P12: G 3.82; Q 3.92; F 1.75; L 2.79; M 2.72; Y 2.56; K 3.83; A 3.44; W 3.85; N 3.98; R 3.42; D 4.85; S 4.01; C 2.72; H 3.38; T 3.78; V 2.99; I 2.43; E 4.57
P20: W 2.1; D 2.98; I 2.49; Q 2.78; H 2.65; A 2.74; K 2.54; S 2.82; V 2.55; C 2.45; L 2.48; F 2.21; G 2.61; N 3.28; M 2.79; Y 2.24; T 2.91; R 2.88; E 2.48
F11: S 4.86; C 4.39; G 4.65; R 4.37; H 4.48; W 2.54; V 4.42; A 5; Y 4.22; P 5.21; K 5.12; M 4.88; E 5.4; L 4.93; N 4.54; D 5.23; T 4.8; I 4.39; Q 4.83
V14: S 3.52; Y 3.21; E 4.36; W 3.59; K 3.45; I 3.11; L 3.9; T 3.49; G 4.21; D 4.63; R 3.75; H 3.86; M 3.1; C 2.25; N 4.43; A 3.13; Q 4.01; F 3.57; P 3.83
H17: N 2.8; V 2.57; C 2.39; Q 2.68; L 2.39; A 3.2; R 2.77; M 2.52; P 2.11; F 2.15; E 3.29; K 2.24; Y 2.52; S 3.01; W 2.19; T 2.94; G 2.82; I 2.66; D 3.28
I9: V 2.94; Y 2.43; W 2.37

Variants of: B2
Experiment: as above
Settings: c terminus: a fixed tail appended

Protein stability index of substitutions, site by site:
L11: R 3.38
G15: K 3.85
S14: T 3.37; G 2.82
S8: H 3.83; W 3.5
N2: E 3.93; S 3.54
P6: M 2.52; N 4.07; R 3.02
S13: Y 3.29
L9: M 3.35
K21: Y 2.48; H 3.38
Y24: G 4.07
Q16: A 3.31; D 3.45
R18: C 2.94
C17: W 3.35; F 3.06
R19: H 3.32
R20: S 2.97
R22: A 3.67; I 3.11; Y 2.87; D 3.37; V 2.8
L10: S 3.88
D7: Y 3.27; T 3.51; E 3.6; L 2.73; H 2.69
I1: Y 3.05; G 3.81; L 3.19
T23: H 3.7; N 3.5
F4: M 4.04; P 4.58; G 4.05
P3: L 2.61; C 3.41; V 2.71
T5: C 2.87; Q 3.78
